This is an account of results in paper PMC4039369, “Nucleotide degradation and ribose salvage in yeast” (Molecular Systems Biology, 2013).

Substrate in data set [1]: Nc1ccn([C@@H]2O[C@H](COP(=O)(O)O)[C@@H](O)[C@H]2O)c(=O)n1
Put plainly: phosphate release (phosphatase) assay, Michaelis-Menten fit. In kind it is biochemical, Saccharomyces cerevisiae. The conditions noted are these: 5 mM MgCl2; substrate range 0.001-9.5 mM. From the text:
phosphate release (phosphatase) assay, Michaelis-Menten fit on Sdt1 | Kinetic characterization of Phm8 and Sdt1 toward their most preferred substrate CMP

Substrate in data set [2]: Nc1ccn([C@@H]2O[C@H](COP(=O)(O)O)[C@@H](O)[C@H]2O)c(=O)n1
Described as above. Type of data set: biochemical, Saccharomyces cerevisiae. Particulars: 5 mM MgCl2; substrate range 0.001-9.5 mM. From the text:
phosphate release (phosphatase) assay, Michaelis-Menten fit on Phm8 | Kinetic characterization of Phm8 and Sdt1 toward their most preferred substrate CMP
This is another data set of the same source.

B1: Sdt1 (Saccharomyces cerevisiae S288C) (protein)
chain: MTVEYTASDLATYQNEVNEQIAKNKAHLESLTHPGSKVTFPIDQDISATPQNPNLKVFFFDIDNCLYKSSTRIHDLMQQSILRFFQTHLKLSPEDAHVLNNSYYKEYGLAIRGLVMFHKVNALEYNRLVDDSLPLQDILKPDIPLRNMLLRLRQSGKIDKLWLFTNAYKNHAIRCLRLLGIADLFDGLTYCDYSRTDTLVCKPHVKAFEKAMKESGLARYENAYFIDDSGKNIETGIKLGMKTCIHLVENEVNEILGQTPEGAIVISDILELPHVVSDLF
B1: in data set [1], the Michaelis-Menten constant (Km) came to 1700 ± 200 µM and the kcat worked out at 0.54 ± 0.02 s⁻¹.

B2: Phm8 (Saccharomyces cerevisiae S288C) (protein)
chain: MTIAKDYRTIYRNQIKKQIRLNQEHLQSLTHLGSQINFEVDPPKLPDPDPARKVFFFDIDNTLYRKSTKVQLLMQQSLSNFFKYELGFDDDEAERLIESYYQEYGLSVKGLIKNKQIDDVLQYNTFIDDSLPLQDYLKPDWKLRELLINLKKKKLGKFDKLWLFTNSYKNHAIRCVKILGIADLFDGITYCHYDRPIEEEFICKPDPKFFETAKLQSGLSSFANAWFIDDNESNVRSALSMGMGHVIHLIEDYQYESENIVTKDHKNKQQFSILKDILEIPLIMDVEVYRPSSIAIKEMEELEEEGEAVNWSNQQINVQSS
As to B2, in data set [2], the Michaelis-Menten constant (Km) is 63 ± 2 µM and the kcat is 19.8 ± 0.1 s⁻¹.
